For this data set, the system named is Escherichia coli TOP10. Kind of data set: shrunken log2 fold change of peptide-encoding DNA abundance (4.5 h post-induction vs induction); higher = less antimicrobial activity (less host growth inhibition). To be noted: time post-induction: 4.5 h; library: site-saturation at positions 5, 18, 19, 20.

The text below walks through data of the supplement of paper PMC9112550, “Optimization of the antimicrobial peptide Bac7 by deep mutational scanning” (BMC Biology, 2022).
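Further: peptides expressed intracellularly from a pBAD plasmid library in pooled LB shake-flask culture, induced with 0.3% L-arabinose, DNA abundance read by NGS, three biological replicates, DESeq2 with apeglm shrinkage.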

Regarding RRIRYRPPRLPRPRPRPMNTPRP, the “shrunken log2 fold change” value was -1.25.

For the sequence RRIRLRPPRLPRPRPRPTYFPRP, the “shrunken log2 fold change” value is -0.451.

Take RRIRSRPPRLPRPRPRPIFNPRP: the “shrunken log2 fold change” value was -0.317.

With RRIRRRPPRLPRPRPRPNANPRP, the “shrunken log2 fold change” value amounted to 0.58.

For the sequence RRIRERPPRLPRPRPRPHHRPRP, the “shrunken log2 fold change” value is -0.145.

As to RRIRMRPPRLPRPRPRPLMIPRP, the “shrunken log2 fold change” value is -0.159.

For RRIRFRPPRLPRPRPRPRRTPRP, the “shrunken log2 fold change” value is 0.375.

In the case of RRIRDRPPRLPRPRPRPIVHPRP, the “shrunken log2 fold change” value is -0.25.

Regarding RRIRKRPPRLPRPRPRPIKTPRP, the “shrunken log2 fold change” value was -0.0153.

For the sequence RRIRDRPPRLPRPRPRPQRVPRP, the “shrunken log2 fold change” value is 0.143.

As to RRIRMRPPRLPRPRPRPNGVPRP, the “shrunken log2 fold change” value was determined as 0.194.

In the case of RRIRKRPPRLPRPRPRPVNMPRP, the “shrunken log2 fold change” value is 0.113.

RRIRDRPPRLPRPRPRPMVDPRP: the “shrunken log2 fold change” value is -0.0109.

For RRIRQRPPRLPRPRPRPFASPRP, the “shrunken log2 fold change” value is -0.35.

Turning to RRIRCRPPRLPRPRPRPVDTPRP, the “shrunken log2 fold change” value was -0.0338.

With RRIRERPPRLPRPRPRPKWFPRP, the “shrunken log2 fold change” value was -0.0144.

As to RRIRGRPPRLPRPRPRPKRRPRP, the “shrunken log2 fold change” value worked out at 1.3.

In the case of RRIRVRPPRLPRPRPRPEQMPRP, the “shrunken log2 fold change” value amounted to 0.212.

In the case of RRIRVRPPRLPRPRPRPFIIPRP, the “shrunken log2 fold change” value was -0.442.

Consider RRIRNRPPRLPRPRPRPYRYPRP, for which the “shrunken log2 fold change” value came to 0.0342.

On to RRIRRRPPRLPRPRPRPNRSPRP, for which the “shrunken log2 fold change” value came out at 0.339.

With RRIRRRPPRLPRPRPRPHIWPRP, the “shrunken log2 fold change” value was -0.0694.

For RRIRTRPPRLPRPRPRPLFSPRP, the “shrunken log2 fold change” value was -0.717.

As to RRIRARPPRLPRPRPRPKEKPRP, the “shrunken log2 fold change” value worked out at 0.0797.

As for RRIRWRPPRLPRPRPRPHLMPRP, the “shrunken log2 fold change” value is -0.0519.

Turning to RRIRKRPPRLPRPRPRPKRMPRP, the “shrunken log2 fold change” value turned out to be 0.296.

As to RRIRRRPPRLPRPRPRPIIGPRP, the “shrunken log2 fold change” value is 0.327.

In the case of RRIRSRPPRLPRPRPRPQAMPRP, the “shrunken log2 fold change” value was 0.182.

Regarding RRIRKRPPRLPRPRPRPTQHPRP, the “shrunken log2 fold change” value came out at 0.748.

In the case of RRIRMRPPRLPRPRPRPGCTPRP, the “shrunken log2 fold change” value came out at 0.245.

RRIRQRPPRLPRPRPRPMGNPRP: the “shrunken log2 fold change” value was -0.136.

Take RRIRVRPPRLPRPRPRPHCNPRP: the “shrunken log2 fold change” value was -0.408.

Consider RRIRTRPPRLPRPRPRPAMVPRP, for which the “shrunken log2 fold change” value is -0.208.

Take RRIRARPPRLPRPRPRPPAWPRP: the “shrunken log2 fold change” value was found to be 0.621.

In the case of RRIRPRPPRLPRPRPRPWVEPRP, the “shrunken log2 fold change” value turned out to be 0.17.

For the sequence RRIRERPPRLPRPRPRPFQLPRP, the “shrunken log2 fold change” value came out at 0.053.

For RRIRWRPPRLPRPRPRPMEAPRP, the “shrunken log2 fold change” value was determined as 0.0987.

As to RRIRLRPPRLPRPRPRPHTEPRP, the “shrunken log2 fold change” value was -0.167.

In the case of RRIRGRPPRLPRPRPRPYCLPRP, the “shrunken log2 fold change” value is -0.305.

In the case of RRIRDRPPRLPRPRPRPYLIPRP, the “shrunken log2 fold change” value was -0.387.

Take RRIRLRPPRLPRPRPRPMIEPRP: the “shrunken log2 fold change” value is -0.00289.

With RRIRERPPRLPRPRPRPPRYPRP, the “shrunken log2 fold change” value was -0.202.

Take RRIRCRPPRLPRPRPRPESRPRP: the “shrunken log2 fold change” value was 0.276.

Take RRIRMRPPRLPRPRPRPLGQPRP: the “shrunken log2 fold change” value worked out at 0.738.

RRIRYRPPRLPRPRPRPRKAPRP: the “shrunken log2 fold change” value came to 0.00796.

RRIRMRPPRLPRPRPRPGYLPRP: the “shrunken log2 fold change” value was determined as 0.0963.

Turning to RRIRIRPPRLPRPRPRPGTTPRP, the “shrunken log2 fold change” value amounted to 0.252.

Consider RRIRIRPPRLPRPRPRPTGNPRP, for which the “shrunken log2 fold change” value is -0.626.

As to RRIRDRPPRLPRPRPRPLAKPRP, the “shrunken log2 fold change” value was found to be 0.96.

Take RRIRIRPPRLPRPRPRPWVRPRP: the “shrunken log2 fold change” value came to 0.0146.

Turning to RRIRTRPPRLPRPRPRPDTIPRP, the “shrunken log2 fold change” value is -0.0386.

Consider RRIRNRPPRLPRPRPRPPRHPRP, for which the “shrunken log2 fold change” value was determined as 0.271.

As for RRIRQRPPRLPRPRPRPTLTPRP, the “shrunken log2 fold change” value turned out to be 0.0596.

For the sequence RRIRCRPPRLPRPRPRPITYPRP, the “shrunken log2 fold change” value is -0.362.

RRIRFRPPRLPRPRPRPEECPRP: the “shrunken log2 fold change” value is -0.0175.

Regarding RRIRIRPPRLPRPRPRPTEMPRP, the “shrunken log2 fold change” value is 0.112.

RRIRGRPPRLPRPRPRPTAHPRP: the “shrunken log2 fold change” value came to 1.12.

In the case of RRIRRRPPRLPRPRPRPKLMPRP, the “shrunken log2 fold change” value came to 0.178.

Regarding RRIRYRPPRLPRPRPRPYIAPRP, the “shrunken log2 fold change” value is -1.23.

Turning to RRIRGRPPRLPRPRPRPSSFPRP, the “shrunken log2 fold change” value was found to be 0.406.

Consider RRIRERPPRLPRPRPRPNITPRP, for which the “shrunken log2 fold change” value is -0.738.

Regarding RRIRYRPPRLPRPRPRPLHKPRP, the “shrunken log2 fold change” value turned out to be 0.0382.

Turning to RRIRQRPPRLPRPRPRPGKVPRP, the “shrunken log2 fold change” value was -0.0155.

As for RRIRGRPPRLPRPRPRPCMTPRP, the “shrunken log2 fold change” value was determined as 2.89.

For RRIRDRPPRLPRPRPRPPPVPRP, the “shrunken log2 fold change” value came to 0.867.

Turning to RRIRGRPPRLPRPRPRPQCCPRP, the “shrunken log2 fold change” value was 0.168.

Take RRIRARPPRLPRPRPRPCGAPRP: the “shrunken log2 fold change” value came out at 0.737.

For RRIRIRPPRLPRPRPRPAHYPRP, the “shrunken log2 fold change” value is -0.153.

As for RRIRYRPPRLPRPRPRPWHRPRP, the “shrunken log2 fold change” value is -0.172.

In the case of RRIRFRPPRLPRPRPRPHMRPRP, the “shrunken log2 fold change” value is -0.0696.

On to RRIRCRPPRLPRPRPRPYEFPRP, for which the “shrunken log2 fold change” value was -0.0684.

Turning to RRIRRRPPRLPRPRPRPVMWPRP, the “shrunken log2 fold change” value was 0.0562.

Take RRIRDRPPRLPRPRPRPVKKPRP: the “shrunken log2 fold change” value is -0.0221.

For the sequence RRIRGRPPRLPRPRPRPPYKPRP, the “shrunken log2 fold change” value came out at 0.18.

Regarding RRIRTRPPRLPRPRPRPYYEPRP, the “shrunken log2 fold change” value is -0.0557.

As to RRIRERPPRLPRPRPRPWNNPRP, the “shrunken log2 fold change” value is -0.653.

As for RRIRVRPPRLPRPRPRPTSLPRP, the “shrunken log2 fold change” value is -0.262.

Regarding RRIRCRPPRLPRPRPRPHAKPRP, the “shrunken log2 fold change” value is -0.446.

Turning to RRIRTRPPRLPRPRPRPDPHPRP, the “shrunken log2 fold change” value was -0.00783.

In the case of RRIRKRPPRLPRPRPRPVWSPRP, the “shrunken log2 fold change” value was -0.0616.

RRIRPRPPRLPRPRPRPPDTPRP: the “shrunken log2 fold change” value amounted to 0.148.

RRIRNRPPRLPRPRPRPVKCPRP: the “shrunken log2 fold change” value was determined as 0.0182.

In the case of RRIRQRPPRLPRPRPRPDPYPRP, the “shrunken log2 fold change” value was determined as 0.032.

Take RRIRTRPPRLPRPRPRPRSSPRP: the “shrunken log2 fold change” value amounted to 0.0755.

RRIRVRPPRLPRPRPRPCWLPRP: the “shrunken log2 fold change” value is -0.0153.

For the sequence RRIRQRPPRLPRPRPRPVAVPRP, the “shrunken log2 fold change” value is 0.257.

Turning to RRIRWRPPRLPRPRPRPQINPRP, the “shrunken log2 fold change” value was -0.348.

Take RRIRRRPPRLPRPRPRPLCDPRP: the “shrunken log2 fold change” value was 0.422.

On to RRIRGRPPRLPRPRPRPCFVPRP, for which the “shrunken log2 fold change” value was 0.319.

Take RRIRVRPPRLPRPRPRPEHMPRP: the “shrunken log2 fold change” value was -0.0512.

Take RRIRDRPPRLPRPRPRPHPAPRP: the “shrunken log2 fold change” value worked out at 0.145.

For the sequence RRIRLRPPRLPRPRPRPKFQPRP, the “shrunken log2 fold change” value is -0.113.

On to RRIRYRPPRLPRPRPRPNASPRP, for which the “shrunken log2 fold change” value is -0.088.

With RRIRSRPPRLPRPRPRPFFDPRP, the “shrunken log2 fold change” value came out at 0.192.

Turning to RRIRNRPPRLPRPRPRPHRTPRP, the “shrunken log2 fold change” value was -0.827.

On to RRIRHRPPRLPRPRPRPQALPRP, for which the “shrunken log2 fold change” value is -0.278.

In the case of RRIRGRPPRLPRPRPRPSCRPRP, the “shrunken log2 fold change” value came to 0.417.

With RRIRERPPRLPRPRPRPVLMPRP, the “shrunken log2 fold change” value was found to be 0.0559.

RRIRQRPPRLPRPRPRPYHLPRP: the “shrunken log2 fold change” value is -0.00174.

Turning to RRIRTRPPRLPRPRPRPWGFPRP, the “shrunken log2 fold change” value stood at 0.0102.

For RRIRKRPPRLPRPRPRPHCYPRP, the “shrunken log2 fold change” value is -0.605.

Regarding RRIRMRPPRLPRPRPRPGFNPRP, the “shrunken log2 fold change” value was -0.106.

Take RRIRCRPPRLPRPRPRPKMTPRP: the “shrunken log2 fold change” value worked out at 0.0216.

For RRIRIRPPRLPRPRPRPVGMPRP, the “shrunken log2 fold change” value turned out to be 0.0752.

As for RRIRVRPPRLPRPRPRPNLLPRP, the “shrunken log2 fold change” value was -0.22.

For the sequence RRIRNRPPRLPRPRPRPCLSPRP, the “shrunken log2 fold change” value was -0.043.

For RRIRVRPPRLPRPRPRPAFQPRP, the “shrunken log2 fold change” value worked out at 0.151.

On to RRIRWRPPRLPRPRPRPALCPRP, for which the “shrunken log2 fold change” value was 0.331.

On to RRIRIRPPRLPRPRPRPYHLPRP, for which the “shrunken log2 fold change” value is -0.115.

As to RRIRSRPPRLPRPRPRPHNVPRP, the “shrunken log2 fold change” value was -0.436.

RRIRWRPPRLPRPRPRPVKDPRP: the “shrunken log2 fold change” value is -0.0234.

Consider RRIRWRPPRLPRPRPRPIGIPRP, for which the “shrunken log2 fold change” value was -0.0434.

For the sequence RRIRIRPPRLPRPRPRPVNYPRP, the “shrunken log2 fold change” value is -0.0508.

As to RRIRGRPPRLPRPRPRPCGIPRP, the “shrunken log2 fold change” value was found to be 0.206.

As to RRIRNRPPRLPRPRPRPYWPPRP, the “shrunken log2 fold change” value is -0.199.

On to RRIRLRPPRLPRPRPRPIIQPRP, for which the “shrunken log2 fold change” value was -0.439.

Turning to RRIRRRPPRLPRPRPRPRQMPRP, the “shrunken log2 fold change” value worked out at 0.313.

Take RRIRLRPPRLPRPRPRPGMRPRP: the “shrunken log2 fold change” value is 0.787.

For RRIRIRPPRLPRPRPRPYGDPRP, the “shrunken log2 fold change” value stood at 0.0112.

On to RRIRRRPPRLPRPRPRPASSPRP, for which the “shrunken log2 fold change” value was -0.0219.

On to RRIRKRPPRLPRPRPRPQYTPRP, for which the “shrunken log2 fold change” value was -0.156.

On to RRIRFRPPRLPRPRPRPKAKPRP, for which the “shrunken log2 fold change” value was -0.016.

For the sequence RRIRIRPPRLPRPRPRPRYIPRP, the “shrunken log2 fold change” value is -0.242.

For the sequence RRIRQRPPRLPRPRPRPVFTPRP, the “shrunken log2 fold change” value is -0.217.

On to RRIRFRPPRLPRPRPRPLERPRP, for which the “shrunken log2 fold change” value is -0.0153.
